Reference: publication PMC3553997 (Nucleic Acids Research, 2012)

Legend:
[1] = molecular target: T1, TreR (TM0393) (Thermotoga maritima, UniProt Q9WYM4); assay: EMSA, loss of operator DNA binding; conditions: 50 nM protein, TM0392/treT operator DNA; pH 8.0, 150 mM KCl, 5 mM MgCl2, 60°C
T1 sequence (Q9WYM4 1-371): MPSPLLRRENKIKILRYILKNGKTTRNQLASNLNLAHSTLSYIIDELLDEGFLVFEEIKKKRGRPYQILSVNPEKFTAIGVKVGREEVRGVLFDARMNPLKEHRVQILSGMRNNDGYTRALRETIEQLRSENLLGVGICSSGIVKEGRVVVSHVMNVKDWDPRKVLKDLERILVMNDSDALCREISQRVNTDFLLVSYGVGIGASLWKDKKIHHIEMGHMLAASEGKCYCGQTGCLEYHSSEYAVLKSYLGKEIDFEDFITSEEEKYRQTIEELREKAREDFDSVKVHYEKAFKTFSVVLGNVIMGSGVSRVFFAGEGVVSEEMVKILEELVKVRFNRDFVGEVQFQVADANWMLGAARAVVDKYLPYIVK

[2] = molecular target: T2, TreR (Thermotoga maritima, UniProt Q9WYM4 1-371); assay: EMSA
T2 sequence: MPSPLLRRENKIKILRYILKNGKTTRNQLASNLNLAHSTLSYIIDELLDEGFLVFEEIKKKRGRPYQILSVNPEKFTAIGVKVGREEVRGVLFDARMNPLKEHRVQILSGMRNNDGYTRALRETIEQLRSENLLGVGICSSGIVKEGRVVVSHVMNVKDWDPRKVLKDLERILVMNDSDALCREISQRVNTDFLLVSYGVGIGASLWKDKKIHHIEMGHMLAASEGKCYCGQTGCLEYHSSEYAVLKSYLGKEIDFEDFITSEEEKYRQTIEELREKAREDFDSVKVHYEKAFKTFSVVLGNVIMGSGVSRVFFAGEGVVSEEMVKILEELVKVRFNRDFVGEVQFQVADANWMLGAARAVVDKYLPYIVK

[3] = molecular target: T3, ManR (Thermotoga maritima, UniProt Q9X0V1 1-368); assay: EMSA
T3 sequence: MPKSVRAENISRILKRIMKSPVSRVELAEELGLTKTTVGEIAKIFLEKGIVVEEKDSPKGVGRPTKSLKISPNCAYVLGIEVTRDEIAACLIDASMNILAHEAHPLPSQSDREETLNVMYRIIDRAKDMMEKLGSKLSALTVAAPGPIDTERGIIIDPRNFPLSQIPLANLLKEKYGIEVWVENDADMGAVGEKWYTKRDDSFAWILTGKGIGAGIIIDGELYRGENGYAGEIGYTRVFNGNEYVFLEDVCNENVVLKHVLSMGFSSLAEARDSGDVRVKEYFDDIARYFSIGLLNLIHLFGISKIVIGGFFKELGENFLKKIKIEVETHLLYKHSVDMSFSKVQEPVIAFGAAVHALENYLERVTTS

[4] = molecular target: T4, XylR (Thermotoga maritima MSB8, UniProt Q9WXW5 1-378); assay: EMSA
T4 sequence: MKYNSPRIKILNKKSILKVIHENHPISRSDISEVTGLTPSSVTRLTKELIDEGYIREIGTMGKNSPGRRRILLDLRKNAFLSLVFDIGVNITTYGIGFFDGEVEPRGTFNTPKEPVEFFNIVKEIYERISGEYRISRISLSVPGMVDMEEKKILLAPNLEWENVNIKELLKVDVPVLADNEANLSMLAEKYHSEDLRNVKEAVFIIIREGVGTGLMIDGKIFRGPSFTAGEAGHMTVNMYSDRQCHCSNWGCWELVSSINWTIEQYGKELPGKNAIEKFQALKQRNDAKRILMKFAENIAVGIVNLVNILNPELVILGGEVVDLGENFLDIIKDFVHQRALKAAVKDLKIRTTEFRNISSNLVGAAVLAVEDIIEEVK

[5] = molecular target: T5, IolR (Thermotoga maritima MSB8, UniProt Q9WYP2 1-383); assay: EMSA
T5 sequence: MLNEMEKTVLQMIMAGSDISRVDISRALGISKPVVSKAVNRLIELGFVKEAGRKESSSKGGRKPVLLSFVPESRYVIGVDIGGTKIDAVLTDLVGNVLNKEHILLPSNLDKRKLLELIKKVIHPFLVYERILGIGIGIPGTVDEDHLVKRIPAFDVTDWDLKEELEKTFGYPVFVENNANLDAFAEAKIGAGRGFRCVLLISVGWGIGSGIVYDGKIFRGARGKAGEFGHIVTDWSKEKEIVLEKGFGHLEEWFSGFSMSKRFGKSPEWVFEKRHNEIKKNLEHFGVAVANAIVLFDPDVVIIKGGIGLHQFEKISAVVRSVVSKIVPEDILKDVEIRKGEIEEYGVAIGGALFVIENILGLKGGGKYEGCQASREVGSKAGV

[6] = molecular target: T6, ChiR (Thermotoga maritima, UniProt Q9WZR5 1-355); assay: EMSA
T6 sequence: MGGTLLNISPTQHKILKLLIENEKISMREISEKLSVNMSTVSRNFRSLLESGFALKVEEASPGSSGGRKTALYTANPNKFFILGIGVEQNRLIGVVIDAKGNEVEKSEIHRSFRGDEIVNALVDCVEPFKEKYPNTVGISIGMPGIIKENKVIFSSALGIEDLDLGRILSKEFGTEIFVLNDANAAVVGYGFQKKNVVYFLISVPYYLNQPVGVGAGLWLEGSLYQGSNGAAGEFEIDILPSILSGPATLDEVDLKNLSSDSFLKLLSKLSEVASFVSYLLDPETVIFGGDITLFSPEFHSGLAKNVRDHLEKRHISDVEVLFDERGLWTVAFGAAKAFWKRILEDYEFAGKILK

[7] = molecular target: T7, BglR (Thermotoga maritima MSB8, UniProt Q9WXN9 1-381); assay: EMSA
T7 sequence: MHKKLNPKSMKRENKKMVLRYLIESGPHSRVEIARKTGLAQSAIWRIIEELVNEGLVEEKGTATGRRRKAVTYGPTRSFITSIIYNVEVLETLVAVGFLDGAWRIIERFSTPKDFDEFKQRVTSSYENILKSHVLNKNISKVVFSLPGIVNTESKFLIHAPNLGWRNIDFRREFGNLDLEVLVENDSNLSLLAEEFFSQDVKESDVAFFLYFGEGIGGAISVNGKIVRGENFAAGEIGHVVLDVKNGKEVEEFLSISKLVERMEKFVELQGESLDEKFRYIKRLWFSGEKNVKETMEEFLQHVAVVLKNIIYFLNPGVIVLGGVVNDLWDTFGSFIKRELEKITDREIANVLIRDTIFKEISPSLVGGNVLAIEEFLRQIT

Q: For OC[C@H]1O[C@H](O[C@H]2O[C@H](CO)[C@@H](O)[C@H](O)[C@H]2O)[C@H](O)[C@@H](O)[C@@H]1O [Trehalose], which “Tested potential ligands / (Sugar)” value [1] is on record?
A: 0.2 mM

B1: treT site (dsDNA)
DNA 1: TGATTAATTGTGTATTAATTCAAGTTACGAATAAATTTGGGAGGGATCA
DNA 2: TGATCCCTCCCAAATTTATTCGTAACTTGAATTAATACACAATTAATCA
Q: For B1, which binding signal [2] is on record?
A: 10 nM

B2: manB site (dsDNA)
DNA 1: CGATGACCCTGATAAATAAGTAAAGTTTACTAATTAACGGGAGGTATCG
DNA 2: CGATACCTCCCGTTAATTAGTAAACTTTACTTATTTATCAGGGTCATCG
Q: For B2, which binding signal [3] is on record?
A: 10 nM

B3: xylR site (dsDNA)
DNA 1: ACCTTGATTTTAAATTATTTCCTGCATATAATTAATGTGAACATAATAT
DNA 2: ATATTATGTTCACATTAATTATATGCAGGAAATAATTTAAAATCAAGGT
Q: With B3 as the molecule, how does the binding signal [4] read?
A: 2.5 nM

B4: xynA site (dsDNA)
DNA 1: TCGAAGAAGCTCAATTTTTTCTTTACAAAAAATAACTTTAGGGTGATAT
DNA 2: ATATCACCCTAAAGTTATTTTTTGTAAAGAAAAAATTGAGCTTCTTCGA
Q: With B4 as the molecule, how does the binding signal [4] read?
A: 2.5 nM

B5: xloE site (dsDNA)
DNA 1: AGATTTACATTAAAATATTTCCCGAAAGGAAAAAATATAACATACAATC
DNA 2: GATTGTATGTTATATTTTTTCCTTTCGGGAAATATTTTAATGTAAATCT
Q: Which binding signal [4] does the source give for B5 here?
A: 5 nM

B6: iolR site (dsDNA)
DNA 1: TAGTTGACAAATTGATTATAATGTGGTTGGTTAGTTAACGATAACAAACGAAAGGAATGGAAAAATGCTGAAT
DNA 2: ATTCAGCATTTTTCCATTCCTTTCGTTTGTTATCGTTAACTAACCAACCACATTATAATCAATTTGTCAACTA
Q: For B6, which binding signal [5] is on record?
A: 2.5 nM

B7: chiR site (dsDNA)
DNA 1: ACAATAATTTATGAAGTTGTTTGCGGCATGCAACTAACTGATGGGAGGG
DNA 2: CCCTCCCATCAGTTAGTTGCATGCCGCAAACAACTTCATAAATTATTGT
Q: Which binding signal [6] does the source give for B7 here?
A: 0.5 nM

B8: bglR site (dsDNA)
DNA 1: GAGTCATATCGTTATAATTTCTTTCTGAGGAAGATAGATAAGAAGCAGG
DNA 2: CCTGCTTCTTATCTATCTTCCTCAGAAAGAAATTATAACGATATGACTC
Q: For B8, which binding signal [7] is on record?
A: 2.5 nM

B9: mtpE site (dsDNA)
DNA 1: TAACATAATCTTTTTATTAGTAAGTGTTATTTATTAACATCCATTTAAA
DNA 2: TTTAAATGGATGTTAATAAATAACACTTACTAATAAAAAGATTATGTTA
Q: With B9 as the molecule, how does the binding signal [3] read?
A: 25 nM

B10: xylA site (dsDNA)
DNA 1: CCCAAGATTTTATATAATTGATTGATAGAAAAAATTTAGGGAGGTGTTT
DNA 2: AAACACCTCCCTAAATTTTTTCTATCAATCAATTATATAAAATCTTGGG
Q: B10 was tested. Which binding signal [4] did it give?
A: 5 nM
